# Patent US20140004122A1, “METHODS FOR TREATING OR PREVENTING CHOLESTEROL RELATED DISORDERS” (AMGEN INC., priority 2011, published 2014)
# B1: 21B12: human anti-PCSK9 monoclonal antibody; light/heavy variable region SEQ ID NO 23/49 (antibody, listed as Homo sapiens, V domains shown)
# VH: QVQLVQSGAEVKKPGASVKVSCKASGYTLTSYGISWVRQAPGQGLEWMGWVSFYNGNTNYAQKLQGRGTMTTDPSTSTAYMELRSLRSDDTAVYYCARGYGMDVWGQGTTVTVSS
# VL: QSALTQPASVSGSPGQSITISCTGTSSDVGGYNSVSWYQQHPGKAPKLMIYEVSNRPSGVSNRFSGSKSGNTASLTISGLQAEDEADYYCNSYTSTSMVFGGGTKLTVL
# Tests used:
# [1] = tested on: human patient exhibiting a Cholesterol Related Disorder; assay: Treatment of cholesterol related disorders (Example 16); assay type: in vivo; details: therapeutically effective amount
# Text: At periodic times during the treatment, the patient is monitored to determine whether the symptoms of the disorder have subsided.
# [2] = tested on: subjects with heterozygous familial hypercholesterolemia (HeFH); assay: 12 week study in heterozygous familial hypercholesterolemia (Example 22); assay type: in vivo, human; details: preliminary
# Protocol: This study is a double-blind, randomized, stratified, placebo-controlled clinical trial evaluating the safety, tolerability, and efficacy of monocloncal antibody 21B12 in subjects having a diagnosis of HeFH. A total enrollment of 150 subjects is planned. […] Randomization will be stratified by screening LDL-C level (<130 mg/dL [3.4 mmol/L] vs≧130 mg/dL) and ezetimibe use at baseline (yes vs no). Randomization should occur within 5-10 days of the screening LDL-C evaluation used to determine eligibility. Monoclonal antibody, 21B12, and placebo will be blinded. Study visits are at weeks 2, 4, 8, and 12. […] The end-of-study (EOS) visit and the last evaluation of lipids is at week 12.
# Males and females, ≧18 to ≦75 years of age, and with a diagnosis of heterozygous familial hypercholesterolemia by the diagnostic criteria of the Simon Broome Register Group (SBRG), are eligible for this study. For enrollment, subjects must be on an approved statin, with stable dose(s) for all allowed (eg, ezetimibe, bile-acid sequestering resin, stanols, or regulatory-approved and marketed niacin (eg, Niaspan or Niacor)) lipid-regulating drugs for at least 4 weeks before LDL-C screening and, in the opinion of the investigator, not requiring uptitration. Fasting LDL-C must be ≧100 mg/dL (2.6 mmol/L) and fasting triglycerides ≦400 mg/dL (4.5 mmol/L) by central laboratory at screening.
# [3] = tested on: hypercholesterolemic subjects unable to tolerate an effective dose of an HMG-CoA reductase inhibitor; assay: 12 week study vs ezetimibe in statin-intolerant patients (Example 23); assay type: in vivo, human; details: preliminary
# Protocol: It is planned to enroll 150 subjects. […] Randomization will be stratified by screening LDL-C level (<130 mg/dL [3.4 mmol/L] vs≧130 mg/dL) and statin use at baseline (yes vs no). Randomization should occur within 5-10 days of the screening LDL-C evaluation used to determine eligibility. Monoclonal antibody, 21B12, and placebo will be blinded. Ezetimibe is not blinded. Study visits are at weeks 2, 4, 8, and 12. […] The end-of-study visit and the last evaluation of lipids is at week 12.
# Males and females, ≧18 to ≦75 years of age, are eligible for this study. Subject must have tried at least 1 statin and have been unable to tolerate any dose or an increase in statin dose above the following total weekly maximum doses due to myalgia or myopathy: atorvastatin ≦70 mg, simvastatin ≦140 mg, pravastatin ≦140 mg, rosuvastatin ≦35 mg, lovastatin ≦140 mg, fluvastatin ≦280 mg. For unlisted statins, the maximal total weekly dose should not exceed 7 times the smallest available tablet size. Symptoms must have resolved when statin was discontinued or the dose reduced. If receiving statin (not exceeding the maximal dose defined above), bile-acid sequestering resin, and/or stanol therapy, the dose(s) must be stable for at least 4 weeks prior to LDL-C screening. If the subject is on ezetimibe at start of screening, ezetimibe must be discontinued for ≧4 weeks before LDL-C screening. Depending on their risk category (based on NCEP ATP III treatment goals) subjects must meet the following fasting LDL-C (by central laboratory) criteria at screening: ≧100 mg/dL (2.6 mmol/L) for subjects with diagnosed coronary heart disease (CHD) or CHD risk equivalent; ≧130 mg/dL (3.4 mmol/L) for subjects without diagnosed CHD or risk equivalent and 2 or more risk factors; ≧160 mg/dL (4.1 mmol/L) for subjects without diagnosed CHD or risk equivalent and with 1 or no risk factors. Fasting triglycerides must be ≦400 mg/dL (4.5 mmol/L) as determined by the central laboratory analysis at screening.
# LDLR in HepG2 cells = assay: LDLR levels with statin and ABP in HepG2 cells (immunoblot); assay type: cell-based, human; details: HepG2 and HepG2-PCSK9 cells, with mevinolin, 48 hours
# Protocol: HepG2 cells were seeded in DMEM with 10% fetal bovine serum (FBS) and grown to ˜90% confluence. The cells were treated with indicated amounts of mevinolin (a statin, Sigma) and PCSK9 ABPs (FIGS. 12A-12C) in DMEM with 3% FBS for 48 hours. Total cell lysates were prepared. […] of total proteins were separated by gel electrophoresis and transferred to PVDF membrane. Immunoblots were performed using rabbit anti-human LDL receptor antibody (Fitzgerald) or rabbit anti-human b-actin antibody. The enhanced chemiluminescent results are shown in the top panels of FIGS. 12A-12C. The intensity of the bands were quantified by ImageJ software and normalized by b-actin. The relative levels of LDLR are shown in the lower panels of FIGS. 12A-12C.
# [4] = Pharmacokinetics in cynomolgus monkeys; assay type: in vivo, cynomolgus monkey; details: 0.5 mg/kg single SC
# Protocol: Antibody concentrations in serum were determined using an enzyme-linked immunosorbent assay (ELISA) with an assay range of 34.4 to 3000 ng/mL (34.4 ng/mL being the lower limit of quantitation [LLOQ]).
# Non-compartmental analysis (NCA) was performed on the serum concentrations using the pre-determined nominal time points for each subject using Watson® LIMS, version 7.0.0.01 (Thermo Scientific, Waltham, Mass.). Data points for estimating the terminal elimination rate constants and half-lives were chosen by visual inspection of the concentration-time profile and best linear fit (typically from 360 h until the antibody concentrations dropped below the lower limit of quantitation).
# NCA parameters reported include: terminal half-life (t1/2,z), the maximum serum concentration (Cmax), area under the serum concentration-time curve from time zero to infinity (AUC0-inf), and apparent serum clearance (CL/F). AUC0-inf was calculated using the linear log-linear trapezoidal method. All parameters were all reported to three significant figures, except for half-life which was reported to two significant figures.
# [5] = 350 mg Q4W SC, end of the dosing interval
# [6] = 280 mg Q4W SC, end of the dosing interval
molecule,measurement,setting,value
B1,serum cholesterol levels vs patients that are not treated,[1],reduced serum cholesterol levels
same,LS mean percent increase from baseline in HDL-C,[2]; [5],15.39%
same,LS mean percent reduction from baseline in LDL-C,[2]; [5],38.46%
same,LS mean percent reduction from baseline in Lp(a),[2]; [5],21.69%
same,LS mean percent reduction from baseline in VLDL-C,[2]; [5],17.16%
same,LS mean percent reduction from baseline in non-HDL cholesterol,[2]; [5],36.16%
same,LS mean percent reduction from baseline in total cholesterol,[2]; [5],24.82%
same,LS mean percent reduction from baseline in triglycerides,[2]; [5],17.24%
same,LS mean percent increase from baseline in HDL-C,[2]; 420 mg Q4W SC,6.77%
same,LS mean percent reduction from baseline in LDL-C,[2]; 420 mg Q4W SC,45.68%
same,LS mean percent reduction from baseline in Lp(a),[2]; 420 mg Q4W SC,28.23%
same,LS mean percent reduction from baseline in VLDL-C,[2]; 420 mg Q4W SC,18.49%
same,LS mean percent reduction from baseline in non-HDL cholesterol,[2]; 420 mg Q4W SC,41.81%
same,LS mean percent reduction from baseline in total cholesterol,[2]; 420 mg Q4W SC,29.45%
same,LS mean percent reduction from baseline in triglycerides,[2]; 420 mg Q4W SC,4.56%
same,LS mean percent increase from baseline in HDL-C,[3]; [6],8.62%
same,LS mean percent reduction from baseline in LDL-C,[3]; [6],38.79%
same,LS mean percent reduction from baseline in Lp(a),[3]; [6],27.38%
same,LS mean percent reduction from baseline in VLDL-C,[3]; [6],31.02%
same,LS mean percent reduction from baseline in non-HDL-C,[3]; [6],39.92%
same,LS mean percent reduction from baseline in total cholesterol,[3]; [6],31.03%
same,LS mean percent reduction from baseline in triglycerides,[3]; [6],15.35%
same,LS mean percent increase from baseline in HDL-C,[3]; [5],4.62%
same,LS mean percent reduction from baseline in LDL-C,[3]; [5],40.01%
same,LS mean percent reduction from baseline in Lp(a),[3]; [5],16.04%
same,LS mean percent reduction from baseline in VLDL-C,[3]; [5],38.14%
same,LS mean percent reduction from baseline in non-HDL-C,[3]; [5],42.86%
same,LS mean percent reduction from baseline in total cholesterol,[3]; [5],34.46%
same,LS mean percent reduction from baseline in triglycerides,[3]; [5],19.22%
same,LS mean percent increase from baseline in HDL-C,[3]; 420 mg Q4W SC,7.55%
same,LS mean percent reduction from baseline in LDL-C,[3]; 420 mg Q4W SC,50.63%
same,LS mean percent reduction from baseline in Lp(a),[3]; 420 mg Q4W SC,23.84%
same,LS mean percent reduction from baseline in VLDL-C,[3]; 420 mg Q4W SC,37.27%
same,LS mean percent reduction from baseline in non-HDL-C,[3]; 420 mg Q4W SC,53.49%
same,LS mean percent reduction from baseline in total cholesterol,[3]; 420 mg Q4W SC,42.23%
same,LS mean percent reduction from baseline in triglycerides,[3]; 420 mg Q4W SC,19.55%
same,LDLR levels compared with the 25A7.1 ABP (a non-neutralizer),LDLR in HepG2 cells,greater increase in LDLR levels
same,half-life,[4],~40 h
